# The nanobody polyreactivity screen of Harvey et al. (2022)
# Experiment: yeast display, Sf9 membrane polyspecificity reagent, FACS + sequencing; frameworks hold sequencing errors
# Procedure, shortened: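 Polyreactivity labels are assigned by the sorting gate from which each nanobody was recovered. The gates were low and high (top ~1%), set on anti-HA fluorescence for expression and streptavidin fluorescence for reagent binding. Before sorting, galactose-induced (36–48 hours) yeast display cells were stained for 1 hour at 4 °C with 10% biotinylated, detergent-solubilized Sf9 membrane reagent.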
row,Sequence,polyreactivity (PSR sort gate)
1,QVQLVESGGGLVQAGGSLRLSCAASGRTFFINAMGWYRPAPGKERELVAAIRVGAGSTYYADSVKGRVTISRDNAKYTVYLQMNSLKPEDTAVYYCAKRTATSTRKYDYWGQGTQVTVSS,high polyreactivity
2,QVQLVESGGGLVQAGGSLRLSCAASGRTFFINTMGWYRQAPGKERELVAAITWSGGSTYYADSVKGRFTISRDNAKNTVYLQMNSLKPEDTAVYYCAAVYVYRPDIIYVEVAYDYWGQGTQVTVSS,low polyreactivity
3,QVQLVESGGGLVQAGGSLRLSCAASGRTFFIYAMGWYRQAPGKERELVAAITRGGTNYADSVKGRFTISRDNAKNTVYLQMNSLKPEDTAVYYCYTYTYAGYNYWGQGTQVTVSS,high polyreactivity
4,QVQLVESGGGLVQAGGSLRLSCAASGRTFFPYGMGWYRQAPGKERELVATISWSGGSTHYADSVKGRFTISRDNAKNTVYLQMNSLKPEDTAVYYCAAGNSLYWYNSGNYWGQGTQVTVSS,low polyreactivity
5,QVQLVESGGGLVQAGGSLRLSCAASGRTFFPYVMGWYRQAPGKERELVAAISNSGTSTYYADSVKGRFTISRDNAKNTVYLQMNSLKPEDTAVYYCAARRYVGLYYWGQGTQVTVSS,high polyreactivity
6,QVQLVESGGGLVQAGGSLRLSCAASGRTFFRNAMGWYRQAPGKERELVAAISKRGGSTYYADSVKGRFTISRDNAKNTVYLQMNSLKPEDTAVYYCNADPRTVGLDYWGQGTQVTVSS,high polyreactivity
7,QVQLVESGGGLVQAGGSLRLSCAASGRTFFSYVMGWYRPAPGKEREFVAAISRSGGNTYYADSVMGRFTISRDNAKNTVYLQMNSLKPEETAVYYCNKPQRILYDYWGHGTQVTVSS,high polyreactivity
8,QVQLVESGGGLVQAGGSLRLSCAASGRTFFVNTMGWSRQAPGKERELVAAISDSGGSTYADSVKGRFTISRDNAKNTVNLQKNSLKPEDTAVYYCAARRRYPQRFGFDYWGQGTQVTVSS,low polyreactivity
9,QVQLVESGGGLVQAGGSLRLSCAASGRTFFVYAMGWYRQAPGKERELVASITLSGGSTYYADSVKGRFTISRDNAKNTVYLQMHSLKPEDTAVYYCAKGWSRDNDREREDEYWGQGTQVTVSS,low polyreactivity
10,QVQLVESGGGLVQAGGSLRLSCAASGRTFFVYAMGWYRQAPGKVRELVAAISNTGGRTYYADSVKGRFTISRDNAKNTVYLQMNSLKPEDTAVYYCAAPYSGPYRSYEYYWGQGTQVTVSS,low polyreactivity
11,QVQLVESGGGLVQAGGSLRLSCAASGRTFFWYAMGWYRQAPGKERELVAAITYRGGGTYYADSVKGRFTISRDNAKNTVYLQMNSLKPEDTAVYYCAAEYWVGVYLYDYWGQGTQVTVSS,high polyreactivity
12,QVQLVESGGGLVQAGGSLRLSCAASGRTFFYNAMAWYRQAPGKERESTYYADSVKGRFTISRDNAKNTVYLQMNSLIPEDTAVSYCAAGTAYVAYEGDKGDYCGQGTQVTVSS,low polyreactivity
13,QVQLVESGGGLVQAGGSLRLSCAASGRTFFYNAMGWYRQAPGKERELVAAISGRGGRTYYADSVKGRFTISRDNAKNTVHLQMNSLKPEDTAVYYCAADAGPLRYDYWGQGTQVTVSS,high polyreactivity
14,QVQLVESGGGLVQAGGSLRLSCAASGRTFFYNAMGWYRQAPGKERELVAAISSGGGSTYYADSVKGRFTISRDNAKNTVYLQMNSLKPEDTAVYYCNAYKGQTGGGGRYGYWGQGTQVTVSS,high polyreactivity
15,QVQLVESGGGLVQAGGSLRLSCAASGRTFFYYAMGWYRQAPGKERELVAAISGRGGRTYYADSVKGRFTISRDNAKNTVYLQMNSLKPEDTAVYYCNTRGTRIASGHYYWGQGTQVTVSS,high polyreactivity
16,QVQLVESGGGLVQAGGSLRLSCAASGRTFGANAMGWYRQAPGKERELVAAISSSDDSTYYADSVKGRFTISRDNAKNTVYLQMNSLKPEDTAVYYCAAEDVYPQLDYWGQGTLVTVSS,low polyreactivity
17,QVQLVESGGGLVQAGGSLRLSCAASGRTFGAYSMGWYRQAPGKERELVASISRSGGSTYYADSVKGRFTISRDNAKNTVYLQMNSLKPEETAVYYCAARVYRYGAMDYWGQGTQVTVSS,high polyreactivity
18,QVQLVESGGGLVQAGGSLRLSCAASGRTFGAYTMGWYRQAPGKERELVAAINWSGGDTYYADSVKGRFTISRDNAKNTVYLQMNSLKPEDTAVYYCNAEPRYGTYDYWGQGTQVTVSS,low polyreactivity
19,QVQLVESGGGLVQAGGSLRLSCAASGRTFGDYAMGWSRQAPGKERELVAAIDVDGGSTYYADSVKGRFTISRDNAKNTVYLQMNSLKPEDTAVYYCNAQAPYWFSFYSDHKYDYWGQGTQVTVSS,low polyreactivity
20,QVQLVESGGGLVQAGGSLRLSCAASGRTFGDYAMGWYRQAPGKERELVAAISKSGGITYYADSVKGRFTISRDNAKNTVYLQMNSLKPEDTAVYYCNADGSPFYYSGYDYWGQGTQVTVSS,high polyreactivity
21,QVQLVESGGGLVQAGGSLRLSCAASGRTFGDYAMGWYRQEPGKERELVAGITGRDSTNYADSVKGRFTISRDNAKNTVYLQMNSLIREDTAVYYCNADFWYTDISYGLATYDYWGQGTQVTVSS,high polyreactivity
22,QVQLVESGGGLVQAGGSLRLSCAASGRTFGGYAMGRYRQAPGKDRQLVASISWSGGSTYYADSVKGRFTISRDNAKNTVYLQMNSLKPEDTAVYYCAARPYLSRSTRMDYWGQGTQVTVSS,low polyreactivity

row,Sequence,polyreactivity (PSR sort gate)
1,QVQLVESGGGLVQAGGSLRLSCAASGRTFGGYAMGWYRQAPGKERELVAAIRRSGGSTYYADSVKGRFTISRDNAKNTVYLQMNSLKPEDTAVYYCNVLRFSTGGYRYVYDYDYWGQGTQVTVSS,high polyreactivity
2,QVQLVESGGGLVQAGGSLRLSCAASGRTFGGYAMGWYRQAPGTERELVAAIRSRGGRTYYADSVKGRFTISRDNAKKSVYLQMNSLKPEDTAVYYCATYGNKWGEDYWGQGTQVTVSS,high polyreactivity
3,QVQLVESGGGLVQAGGSLRLSCAASGRTFGGYTMGWYRKAPGKERELVAAISKRGGSTYYADSVKGRFTISRDNAKNTVYLQMNSLKPEDTAVYYCARDVRTVIVSTGYDYWGQGTQVTVSS,high polyreactivity
4,QVQLVESGGGLVQAGGSLRLSCAASGRTFGGYTMGWYRQAPGKERALVAAIRWSGGRTYYADSVKGRFTISRDNAKNTVYLQMNSLKPEDTAVYYCNARYVFPYYWGQGTQVTVSS,high polyreactivity
5,QVQLVESGGGLVQAGGSLRLSCAASGRTFGGYTMGWYRQAPGKERELVAAITGSGSNTYYADSVKGRFTISRDNAKNTVYLQMNSLKPEDTAVYYCAAPYSYRTWYPYGYWGQGTQVTVSS,high polyreactivity
6,QVQLVESGGGLVQAGGSLRLSCAASGRTFGIYAMGWYRQAPGKERELVASISWSGGRTYYADSVKGRFTLSRDNAKNTVYLQMNSLKPEDTAVYYCAAYGVYYPRSWQYFDWYGYWGQGTQVTVSS,high polyreactivity
7,QVQLVESGGGLVQAGGSLRLSCAASGRTFGIYAMGWYRQAPGTERQMVADITSGGDTYYADSVKGRFTISRDNAKNTVYLQMNSLKPEDTAVYYCAADIYPDWIYLLYGYWGQGTQVNVSS,low polyreactivity
8,QVQLVESGGGLVQAGGSLRLSCAASGRTFGIYTMGWYRQAPGKERKLVAAISKRGSSTYYADSVKGRFTISRDNAKNTVYLQMNSLKPEDTAVYYCNARSWYIRGSQEYYYWGQGTQVTVSS,high polyreactivity
9,QVQLVESGGGLVQAGGSLRLSCAASGRTFGKNAMGWYRPAPGKERELVAAIRYRTGSTYYADSVKGRFTISRDNAKNTVYLQMNSLKPEDTAVYYCAKVGSSPLYWGQGTHVTVSS,high polyreactivity
10,QVQLVESGGGLVQAGGSLRLSCAASGRTFGKNAMGWYRQAPGKERELVAAISWSGGRTYYADSVKGRFTISRDNAKNTVYLQMNSLKPEDTAVYYCATASYRNPSDYWGQGTQVTVSS,high polyreactivity
11,QVQLVESGGGLVQAGGSLRLSCAASGRTFGKYAMGWYRQAPGKERELVAGISSRGGSTYYADSVKGRFTISRDNAKNTVYLQMNSLKPEDTAVYYCAKRPLTSNASQGDYWGQGTQVTVSS,high polyreactivity
12,QVQLVESGGGLVQAGGSLRLSCAASGRTFGKYAMGWYRQAPGKERELVATISLSGGSTYYADSVKGRFTISRDNAKNTVYLQMNSLKPEDTAVYYCAARVYTYYYDLHKRYYWGQGTQVTVSS,high polyreactivity
13,QVQLVESGGGLVQAGGSLRLSCAASGRTFGLNAMGWYRQAPGKDRELVAAISSSGGSTYYADSVKGRFTISRDNAKNTVYLQKNSLKPEDTAVYYCAKGLYRYGTAYYYWGQGTQVTVSS,high polyreactivity
14,QVQLVESGGGLVQAGGSLRLSCAASGRTFGLNAMGWYRQAPGKERELVAAIDWRGVNTYYADSVKGRFTISRDNAKNTVYLQMNSLKPEDTAVYYCNARAYGRYYWGQGTQVTVSS,high polyreactivity
15,QVQLVESGGGLVQAGGSLRLSCAASGRTFGLYAMGWYRQAPGKETELVAAISSSGGSTYYADSVKGRFTISRDNAKNTVYLQMNSLKPEDTAVYYCAKYRRVGYLYDYWGQGTQVTVSS,high polyreactivity
16,QVQLVESGGGLVQAGGSLRLSCAASGRTFGNNAMGWYRQAPGKEREFVAAITSRGGSTYYADSVKGRFTISRDNAKNTVYLQINSLKPEDTAVYYCNREYQLPSQRTEHYYWGQGTQVTVSS,low polyreactivity
17,QVQLVESGGGLVQAGGSLRLSCAASGRTFGNYAMGWYRQAPGKERELVAAISSGRSTNYADSVKRRFTISRDNGKNTVYLQMNSLKPEDTAVYYCNADWGFPDVKETGVRFDYWGQGTQVTVSW,low polyreactivity
18,QVQLVESGGGLVQAGGSLRLSCAASGRTFGPNGMGWYRQAPGKERELVAAITRRGGSTYYADSVKGRFTISRDNEKNTVYLQMNSLKPEDTAVYYCAAYSSWGGFDYWGQGTQVTVSS,low polyreactivity
19,QVQLVESGGGLVQAGGSLRLSCAASGRTFGPYAKGWYRQAPGKERELVAAITDTGSGTFYADSVKGRFTISRDNAKNTVYFQMNSLKPEDTAVYYCNAVRKYWGQGTEVTVSS,low polyreactivity
20,QVQLVESGGGLVQAGGSLRLSCAASGRTFGPYAMGWSRQAPGKERELVAAITWSGGSTYYADSVKGRFTISRDNAKNTVYLQMNSLKPEDTAVYYCAAKFSIWTLKKYYYWGQGTQVTVSS,high polyreactivity
21,QVQLVESGGGLVQAGGSLRLSCAASGRTFGPYAMGWYRQPPGKEREFVAAISYSGGSTYYADSVKGRLTISRDNAKNTVDLQMNSLKPEVTAVYYCAVDIDANSGTRDYWGQGTQVTVSS,low polyreactivity
